Data reported in PMC3948627.

Molecular target: Aha1 I64X (pAzpa at position 64) with C-terminal V5/His6-tag (S. cerevisiae) (UniProt Q12449)
Experiment: cross-linking; in vivo photo-cross-linking (pAzpa, UV 365 nm), crosslink product immunoprecipitated by anti-V5, separated by 6% SDS-PAGE, band digested and identified by MALDI-TOF/MS

Aha1 I64X (pAzpa at position 64) with C-terminal V5/His6-tag (from UniProt Q12449 1-350)
stoichiometry N: 2
